Laboratory results taken from patent US20210371529A1.
Like-named read-outs stand apart in the source and are kept apart here.

Assays:
human LAG-3-His (human) [1] = molecular target: human LAG-3-His (human) (UniProt P18627); assay: BLI (ForteBio), antibody on AHQ tip, human LAG-3-His 100 nM in solution, univalent
human LAG-3-His (human) [2] = molecular target: human LAG-3-His (human) (UniProt P18627); assay: BLI (ForteBio), antibody on AHQ tip, human LAG-3-His 100 nM in solution
[3] = molecular target: LAG-3 on activated human CD4+ T cells (human) (UniProt P18627); assay: flow cytometry on activated human CD4+ T cells, MFI curve
[4] = molecular target: rhLAG3 protein (huFc) (human) (UniProt P18627); assay: flow cytometry, blocking of rhLAG3 (huFc) 20 nM binding to HLA-DR on CHO-DR cells
[5] = molecular target: human LAG-3 overexpressed on HEK293 cells (human) (UniProt P18627); assay: flow cytometry on 293-hLAG-3 cells, MFI curve
[6] = molecular target: human LAG-3 overexpressed on HEK293 cells (human) (UniProt P18627); assay: flow cytometry on 293-hLAG-3 cells, MFI curve; remark: listed apart in the source

Sequence of human LAG-3-His (human) (P18627 23-450 limits assumed): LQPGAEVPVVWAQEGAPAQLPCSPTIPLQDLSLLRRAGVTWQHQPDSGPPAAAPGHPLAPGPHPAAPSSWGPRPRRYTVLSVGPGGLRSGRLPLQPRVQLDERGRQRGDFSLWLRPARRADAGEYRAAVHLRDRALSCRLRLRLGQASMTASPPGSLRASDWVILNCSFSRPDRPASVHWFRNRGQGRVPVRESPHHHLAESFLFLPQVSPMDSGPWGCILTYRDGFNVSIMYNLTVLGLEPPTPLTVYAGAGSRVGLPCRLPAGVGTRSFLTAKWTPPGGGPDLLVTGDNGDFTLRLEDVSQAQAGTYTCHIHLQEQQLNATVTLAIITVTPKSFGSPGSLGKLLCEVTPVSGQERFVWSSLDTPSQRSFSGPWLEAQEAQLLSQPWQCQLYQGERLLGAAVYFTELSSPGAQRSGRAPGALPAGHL
Sequence of human LAG-3 overexpressed on HEK293 cells (human) (P18627 23-525): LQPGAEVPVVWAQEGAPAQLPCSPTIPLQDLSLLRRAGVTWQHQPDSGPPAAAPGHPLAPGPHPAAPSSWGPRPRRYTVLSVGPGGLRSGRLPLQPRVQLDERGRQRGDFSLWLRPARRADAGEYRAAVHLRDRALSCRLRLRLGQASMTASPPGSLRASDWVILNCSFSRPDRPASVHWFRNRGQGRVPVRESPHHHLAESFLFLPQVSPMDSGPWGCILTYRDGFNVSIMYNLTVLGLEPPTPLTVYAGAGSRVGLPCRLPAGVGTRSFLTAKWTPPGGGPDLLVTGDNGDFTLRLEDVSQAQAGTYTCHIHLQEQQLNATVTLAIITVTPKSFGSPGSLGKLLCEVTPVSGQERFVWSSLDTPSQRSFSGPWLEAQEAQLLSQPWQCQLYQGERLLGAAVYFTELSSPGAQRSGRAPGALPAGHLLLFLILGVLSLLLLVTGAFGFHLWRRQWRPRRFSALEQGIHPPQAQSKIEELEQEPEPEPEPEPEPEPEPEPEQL
Sequence of LAG-3 on activated human CD4+ T cells (human) (P18627 23-525): as above
Sequence of rhLAG3 protein (huFc) (human) (P18627 23-450 limits assumed): as the sequence (P18627 23-450 limits assumed) above

Kd (human LAG-3-His (human) [1]): 9.02 nM | koff (human LAG-3-His (human) [2]): 0.00101 s⁻¹ | kon (human LAG-3-His (human) [2]): 112000 M⁻¹ s⁻¹ | EC50 [3]: 0.036 nM | IC50 [4]: 5.14 nM | EC50 [5]: 2.59 nM | EC50 [6]: 3.34 nM
Substance: 25F7 (antibody)
